In the supplement of paper PMC10567573:

B1: ANKRD40 (parent)
chain: YQELLRVCCCELGVNPDQVEKIRK

Variants of: B1
Test: protein stability index of a GFP-peptide fusion (GPS, HEK-293T) (PSI 1-6); higher = more stable
Settings: c terminus: a fixed tail appended
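Also: lentivirally expressed fusions sorted by FACS into six bins by GFP to DsRed ratio, PSI derived from sequencing read proportions per bin multiplied by bin number.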

Protein stability index, by site and new letter:
C9: K 2.23, A 2.61, T 2.23
K24: Q 2.12, M 1.66, P 1.35, C 1, E 1.62, T 2, G 2.46, A 1.36, S 1.66, D 2.13, I 1.6, H 1.59, V 1.61, N 1.61
E11: H 1.79, I 1.49, V 1.56, L 2, W 1, N 1.76, F 2.19, D 1.89, G 1.86, K 2.89, R 1.32, M 2.03, C 2.62, T 1.98, P 1.94
Q18: T 2.16, I 1.89, C 1.52, V 1.8, S 2.08, A 1.32, F 1.01, N 2.32, H 1.48, L 1.67, E 2.13, P 1.4, D 2.73, G 2.02, Y 1.19, M 2.02
V7: F 1.61, G 1.48, I 2.03, E 2.28, N 1.96, R 1.41, Q 1.97, D 2.53, K 2.23, H 2.59, A 2.15, L 1.46
L5: D 3.26, N 1.99, T 1.91, P 1.75, Q 3.04, G 2.05, M 2.41, C 3.06, H 2.18, K 2.37, A 2.5
E20: N 1.99, P 1.66, D 2.94, S 1.31, C 1.56, R 1.96, I 3.43, V 1.99, T 1.47, H 1.26, M 1.85, A 1.97, L 2.4
L12: K 2.49, V 1.64, W 1.65, A 1.78, G 2.31, C 2.03, F 2.21, N 2.86, I 2.21, Y 2.24, E 2.75, P 2.55, Q 2.81, H 1.88, D 2.64, S 2.15, R 1.7
D17: R 2.04, L 1.59, C 2.01, S 2.4, F 1.87, I 1.69, T 2.42, K 1.69, M 1.56, Q 2.94
K21: D 1.66, G 1.82, W 2.33, R 2.12, E 2.4, P 1, H 1.49, I 1.81, F 2.97, V 2.54, A 2.02, Y 2.15, L 1.05, N 1.85
I22: S 2.06, D 2.25, A 2.02, M 1.63, E 2.14, Q 2.99, R 1.88, W 1.54, Y 2.57, G 2, C 2.13, P 1.18, K 2.43, V 1.41, F 2.44, N 3.16
C10: L 1.86, S 2.24, G 2.22, T 2.04, F 1.68, V 2.1, R 2.35, M 2.08, H 2.63, W 1.81, I 1.63
V19: I 2.25, Y 2.26, R 1.6, W 1.75, H 2.27, S 1.66, P 2.19, A 1.79, E 2.51, C 2.1, Q 2.29, G 1.64, F 2.19, N 1.34, K 2.68
